Measured values reported in patent publication US20170363643A1.

Legend:
[1] = molecular target: His-tagged recombinant human SMN protein (ProteinTech, catalog # ag14333) (human) (UniProt Q16637); assay: Erenna sandwich assay, capture MABE230; SMN 2 pg/mL, MPs 5 µg/well, Det Ab 100 ng/mL, Cap Ab/MP 12.5 µg/mg
[2] = molecular target: His-tagged recombinant human SMN protein (ProteinTech, catalog # ag14333) (human) (UniProt Q16637); assay: Erenna sandwich assay, capture MABE230 12.5 µg/mg MPs; Det Ab 1000 ng/mL; SMN 66.67 pg/mL
[3] = molecular target: His-tagged recombinant human SMN protein (ProteinTech, catalog # ag14333) (human) (UniProt Q16637); assay: Erenna sandwich assay, capture MABE230; human CSF sample 5 spiked with recombinant SMN 5.0 pg/mL (endogenous SMN also present)
[4] = molecular target: endogenous SMN protein in human CSF (human) (UniProt Q16637); assay: Erenna sandwich assay, capture MABE230; human CSF sample 4, unspiked (endogenous SMN only)
[5] = molecular target: His-tagged recombinant human SMN protein (ProteinTech, catalog # ag14333) (human) (UniProt Q16637); assay: Erenna sandwich assay, capture MABE230 12.5 µg/mg MPs; Det Ab 500 ng/mL; SMN 200.00 pg/mL
[6] = molecular target: His-tagged recombinant human SMN protein (ProteinTech, catalog # ag14333) (human) (UniProt Q16637); assay: Erenna sandwich assay, capture MABE230; SMN 2 pg/mL, MPs 10 µg/well, Det Ab 500 ng/mL, Cap Ab/MP 12.5 µg/mg
[7] = molecular target: His-tagged recombinant human SMN protein (ProteinTech, catalog # ag14333) (human) (UniProt Q16637); assay: Erenna sandwich assay, capture MABE230; human CSF sample 2 spiked with recombinant SMN 10.0 pg/mL (endogenous SMN also present)
[8] = molecular target: His-tagged recombinant human SMN protein (ProteinTech, catalog # ag14333) (human) (UniProt Q16637); assay: Erenna sandwich assay, capture MABE230 12.5 µg/mg MPs; Det Ab 1000 ng/mL; SMN 0.06 pg/mL
[9] = molecular target: His-tagged recombinant human SMN protein (ProteinTech, catalog # ag14333) (human) (UniProt Q16637); assay: Erenna sandwich assay, capture MABE230; SMN 2 pg/mL, MPs 5 µg/well, Det Ab 50 ng/mL, Cap Ab/MP 25 µg/mg
[10] = molecular target: His-tagged recombinant human SMN protein (ProteinTech, catalog # ag14333) (human) (UniProt Q16637); assay: Erenna sandwich assay, capture MABE230 12.5 µg/mg MPs; Det Ab 500 ng/mL; SMN 0.46 pg/mL
[11] = molecular target: His-tagged recombinant human SMN protein (ProteinTech, catalog # ag14333) (human) (UniProt Q16637); assay: Erenna sandwich assay, capture MABE230 12.5 µg/mg MPs; Det Ab 1000 ng/mL; SMN 0.46 pg/mL

- detected events (DE) (detected events) [1]: 753
- detected events (DE) (detected events) [2]: 11500
- event photons (EP) (event photons) [2]: 1.06e+07
- detected events (DE) (detected events) [3]: 6070
- detected events (DE) (detected events) [4]: 375
- detected events (DE) (detected events) [5]: 9460
- event photons (EP) (event photons) [5]: 1.86e+07
- detected events (DE) (detected events) [6]: 2120
- detected events (DE) (detected events) [7]: 9630
- detected events (DE) (detected events) [8]: 125
- event photons (EP) (event photons) [8]: 15900
- detected events (DE) (detected events) [9]: 560
- detected events (DE) (detected events) [10]: 562
- event photons (EP) (event photons) [10]: 77500
- detected events (DE) (detected events) [11]: 630
- event photons (EP) (event photons) [11]: 87400
Substance: ProteinTech anti-SMN2 (catalog #60154-1-Ig) (antibody)
